Test results: the supplement of paper PMC9112550, “Optimization of the antimicrobial peptide Bac7 by deep mutational scanning” (BMC Biology, 2022)

These sequences were tested on Escherichia coli TOP10 (assay: shrunken log2 fold change of peptide-encoding DNA abundance (4.5 h post-induction vs induction); higher = less antimicrobial activity (less host growth inhibition)). Details: time post-induction: 4.5 h; library: site-saturation at positions 5, 18, 19, 20.
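Also: peptides expressed intracellularly from a pBAD plasmid library in pooled LB shake-flask culture, induced with 0.3% L-arabinose, DNA abundance read by NGS, three biological replicates, DESeq2 with apeglm shrinkage.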

Row | Sequence | shrunken log2 fold change
1 | RRIRRRPPRLPRPRPRPGTWPRP | 0.0793
2 | RRIRYRPPRLPRPRPRPEWIPRP | 0.0106
3 | RRIRSRPPRLPRPRPRPHDDPRP | -0.114
4 | RRIRFRPPRLPRPRPRPLRCPRP | 0.0723
5 | RRIRARPPRLPRPRPRPPWAPRP | 0.576
6 | RRIRARPPRLPRPRPRPKRGPRP | 0.565
7 | RRIRGRPPRLPRPRPRPLTEPRP | 1.22
8 | RRIRSRPPRLPRPRPRPPMDPRP | -0.0324
9 | RRIRKRPPRLPRPRPRPQNNPRP | -0.417
10 | RRIRIRPPRLPRPRPRPDPFPRP | 0.261
11 | RRIRTRPPRLPRPRPRPDVCPRP | 0.11
12 | RRIRCRPPRLPRPRPRPAVLPRP | -0.218
13 | RRIRHRPPRLPRPRPRPIRRPRP | 0.0591
14 | RRIRHRPPRLPRPRPRPKFKPRP | 0.0646
15 | RRIRPRPPRLPRPRPRPHVRPRP | 0.036
16 | RRIRWRPPRLPRPRPRPFMAPRP | -0.121
17 | RRIRNRPPRLPRPRPRPGYMPRP | -0.281
18 | RRIRKRPPRLPRPRPRPLRIPRP | 0.648
19 | RRIRLRPPRLPRPRPRPACIPRP | -0.0506
20 | RRIRDRPPRLPRPRPRPNCAPRP | -0.0166
21 | RRIRTRPPRLPRPRPRPHTYPRP | -0.296
22 | RRIRWRPPRLPRPRPRPCVLPRP | -0.0369
23 | RRIRVRPPRLPRPRPRPQVMPRP | -0.112
24 | RRIRARPPRLPRPRPRPIPSPRP | -0.156
25 | RRIRPRPPRLPRPRPRPLYEPRP | -0.303

Row | Sequence | shrunken log2 fold change
26 | RRIRFRPPRLPRPRPRPSNLPRP | -0.56
27 | RRIRHRPPRLPRPRPRPSPYPRP | -0.703
28 | RRIRWRPPRLPRPRPRPVVTPRP | 0.338
29 | RRIRCRPPRLPRPRPRPYDKPRP | -0.985
30 | RRIRIRPPRLPRPRPRPRRTPRP | -0.0386
31 | RRIRTRPPRLPRPRPRPIMCPRP | -0.255
32 | RRIRCRPPRLPRPRPRPCPYPRP | -0.215
33 | RRIRRRPPRLPRPRPRPVSGPRP | 0.366
34 | RRIRGRPPRLPRPRPRPRQHPRP | 0.305
35 | RRIRTRPPRLPRPRPRPENWPRP | 0.157
36 | RRIRLRPPRLPRPRPRPHVDPRP | 0.0142
37 | RRIRCRPPRLPRPRPRPASFPRP | -0.176
38 | RRIRPRPPRLPRPRPRPWYYPRP | -0.102
39 | RRIRDRPPRLPRPRPRPGRDPRP | 0.193
40 | RRIRLRPPRLPRPRPRPKHVPRP | -0.0799
41 | RRIRVRPPRLPRPRPRPMHQPRP | 0.02
42 | RRIRERPPRLPRPRPRPVWYPRP | -0.383
43 | RRIRHRPPRLPRPRPRPQIAPRP | -0.103
44 | RRIRWRPPRLPRPRPRPWIIPRP | -0.267
45 | RRIRRRPPRLPRPRPRPKTEPRP | 0.452
46 | RRIRGRPPRLPRPRPRPRYFPRP | -0.0468
47 | RRIRRRPPRLPRPRPRPKKGPRP | 0.403
48 | RRIRFRPPRLPRPRPRPMYWPRP | 0.146
49 | RRIRQRPPRLPRPRPRPKVMPRP | -0.0261
50 | RRIRYRPPRLPRPRPRPIYTPRP | -0.943

Row | Sequence | shrunken log2 fold change
51 | RRIRHRPPRLPRPRPRPAWMPRP | 0.574
52 | RRIRVRPPRLPRPRPRPRIRPRP | -0.202
53 | RRIRPRPPRLPRPRPRPYICPRP | -0.149
54 | RRIRQRPPRLPRPRPRPLKMPRP | -0.269
55 | RRIRTRPPRLPRPRPRPPADPRP | 0.217
56 | RRIRRRPPRLPRPRPRPREEPRP | 0.919
57 | RRIRKRPPRLPRPRPRPPRWPRP | 1.07
58 | RRIRVRPPRLPRPRPRPNDQPRP | -0.0759
59 | RRIRIRPPRLPRPRPRPQIDPRP | -2.56
60 | RRIRHRPPRLPRPRPRPSWGPRP | -0.0416
61 | RRIRDRPPRLPRPRPRPPEAPRP | 0.479
62 | RRIRTRPPRLPRPRPRPTWEPRP | 0.95
63 | RRIRPRPPRLPRPRPRPHSTPRP | -0.583
64 | RRIRYRPPRLPRPRPRPPYYPRP | -0.214
65 | RRIRYRPPRLPRPRPRPGRPPRP | 0.0326
66 | RRIRRRPPRLPRPRPRPFCCPRP | 0.343
67 | RRIRWRPPRLPRPRPRPKICPRP | 0.357
68 | RRIRDRPPRLPRPRPRPCSAPRP | 0.45
69 | RRIRARPPRLPRPRPRPLQYPRP | 0.00717
70 | RRIRPRPPRLPRPRPRPAPGPRP | 0.645
71 | RRIRCRPPRLPRPRPRPQGPPRP | 0.353
72 | RRIRYRPPRLPRPRPRPLMEPRP | -0.318
73 | RRIRPRPPRLPRPRPRPNQAPRP | -0.0302
74 | RRIRPRPPRLPRPRPRPSWDPRP | -0.0474
75 | RRIRHRPPRLPRPRPRPPQLPRP | -0.215

Row | Sequence | shrunken log2 fold change
76 | RRIRPRPPRLPRPRPRPSGKPRP | -0.247
77 | RRIRQRPPRLPRPRPRPRPFPRP | 0.149
78 | RRIRWRPPRLPRPRPRPSPPPRP | 0.423
79 | RRIRSRPPRLPRPRPRPRGYPRP | 0.13
80 | RRIRDRPPRLPRPRPRPYHRPRP | 0.0231
81 | RRIRGRPPRLPRPRPRPGYHPRP | 0.0713
82 | RRIRHRPPRLPRPRPRPHLNPRP | -0.00458
83 | RRIRERPPRLPRPRPRPEIYPRP | 0.0872
84 | RRIRHRPPRLPRPRPRPCPVPRP | -0.0628
85 | RRIRERPPRLPRPRPRPVELPRP | -0.0276
86 | RRIRYRPPRLPRPRPRPKQEPRP | -0.017
87 | RRIRPRPPRLPRPRPRPLHTPRP | -0.128
88 | RRIRCRPPRLPRPRPRPRYAPRP | -0.229
89 | RRIRVRPPRLPRPRPRPFRIPRP | -0.26
90 | RRIRRRPPRLPRPRPRPNTVPRP | -0.107
91 | RRIRNRPPRLPRPRPRPCRQPRP | -0.065
92 | RRIRARPPRLPRPRPRPLQNPRP | 0.698
93 | RRIRRRPPRLPRPRPRPHMCPRP | -0.0222
94 | RRIRYRPPRLPRPRPRPWSGPRP | -0.184
95 | RRIRIRPPRLPRPRPRPQPEPRP | 0.0576
96 | RRIRIRPPRLPRPRPRPDSEPRP | 0.0636
97 | RRIRYRPPRLPRPRPRPWCRPRP | -0.414
98 | RRIRQRPPRLPRPRPRPSCKPRP | -0.259
99 | RRIRTRPPRLPRPRPRPVTMPRP | -0.289
100 | RRIRRRPPRLPRPRPRPCRRPRP | 0.0946

Row | Sequence | shrunken log2 fold change
101 | RRIRVRPPRLPRPRPRPTRYPRP | -0.0106
102 | RRIRPRPPRLPRPRPRPYTNPRP | -0.709
103 | RRIRYRPPRLPRPRPRPIDHPRP | -0.0413
104 | RRIRTRPPRLPRPRPRPSWKPRP | -0.124
105 | RRIRFRPPRLPRPRPRPKSLPRP | 0.0638
106 | RRIRERPPRLPRPRPRPYLQPRP | -0.138
107 | RRIRERPPRLPRPRPRPGGWPRP | 0.492
108 | RRIRLRPPRLPRPRPRPRHWPRP | 0.679
109 | RRIRQRPPRLPRPRPRPQEYPRP | 0.0742
110 | RRIRMRPPRLPRPRPRPKCFPRP | 0.0196
111 | RRIRCRPPRLPRPRPRPCEGPRP | 0.0324
112 | RRIRPRPPRLPRPRPRPGNSPRP | 0.0886
113 | RRIRNRPPRLPRPRPRPNVIPRP | -0.261
114 | RRIRTRPPRLPRPRPRPKCQPRP | -0.144
115 | RRIRHRPPRLPRPRPRPAVFPRP | -0.0167
116 | RRIRARPPRLPRPRPRPCEHPRP | 0.0977
117 | RRIRIRPPRLPRPRPRPSGKPRP | -0.146
118 | RRIRHRPPRLPRPRPRPGWIPRP | -0.051
119 | RRIRNRPPRLPRPRPRPRRKPRP | 0.0625
120 | RRIRPRPPRLPRPRPRPVWQPRP | 0.23
121 | RRIRLRPPRLPRPRPRPDGPPRP | 0.0394
122 | RRIRVRPPRLPRPRPRPASRPRP | 0.275
123 | RRIRPRPPRLPRPRPRPPWPPRP | 0.688
124 | RRIRKRPPRLPRPRPRPMCNPRP | 0.26
125 | RRIRWRPPRLPRPRPRPHSPPRP | -0.09

Row | Sequence | shrunken log2 fold change
126 | RRIRNRPPRLPRPRPRPIMLPRP | -0.482
127 | RRIRLRPPRLPRPRPRPRNYPRP | -0.0808
128 | RRIRPRPPRLPRPRPRPYFLPRP | -0.614
129 | RRIRKRPPRLPRPRPRPQMTPRP | 0.0443
130 | RRIRSRPPRLPRPRPRPMFDPRP | -0.0808
131 | RRIRPRPPRLPRPRPRPLGYPRP | -0.0805
132 | RRIRPRPPRLPRPRPRPIWRPRP | 0.583
133 | RRIRQRPPRLPRPRPRPWMTPRP | -0.00186
134 | RRIRHRPPRLPRPRPRPYCVPRP | -0.154
135 | RRIRYRPPRLPRPRPRPGGVPRP | -0.332
136 | RRIRFRPPRLPRPRPRPAVWPRP | 0.402
137 | RRIRRRPPRLPRPRPRPVMRPRP | 0.714
138 | RRIRVRPPRLPRPRPRPVAHPRP | 0.0271
139 | RRIRPRPPRLPRPRPRPGIMPRP | -0.2
140 | RRIRGRPPRLPRPRPRPFVPPRP | 0.0587
141 | RRIRTRPPRLPRPRPRPPCYPRP | -0.139
142 | RRIRPRPPRLPRPRPRPTQQPRP | 0.827
143 | RRIRHRPPRLPRPRPRPVWKPRP | -0.00992
144 | RRIRWRPPRLPRPRPRPLSPPRP | -0.097
145 | RRIRGRPPRLPRPRPRPIPLPRP | 0.16
146 | RRIRCRPPRLPRPRPRPKPEPRP | 0.377
147 | RRIRIRPPRLPRPRPRPSNVPRP | -0.683
148 | RRIRDRPPRLPRPRPRPQYTPRP | -0.31
149 | RRIRLRPPRLPRPRPRPVEMPRP | -0.0829
150 | RRIRRRPPRLPRPRPRPNAHPRP | 0.0582
